In article PMC9730764:

Tests used:
[1] = biological target: Bacillus subtilis cysteine desulfurase SufS (B. subtilis) (UniProt O32164)
[2] = biological target: Staphylococcus aureus cysteine desulfurase SufS (S. aureus USA300_LAC)

For “Staphylococcus aureus sulfurtransferase SufU (from UniProt A0ABV4SS75 2-153) (natural protein)”, the stimulation factor of SufS cysteine desulfurase activity by SufU [1] was 15 and the stimulation factor of SufS cysteine desulfurase activity by SufU [2] was 1.5.
